5 molecules from US20200407445A1 (ITEOS THERAPEUTICS, published 2020) can be followed below.

The target in experiment [1] is T1, human TIGIT expressed on cells (human, UniProt Q495A1 22-244).
T1 sequence (looked up): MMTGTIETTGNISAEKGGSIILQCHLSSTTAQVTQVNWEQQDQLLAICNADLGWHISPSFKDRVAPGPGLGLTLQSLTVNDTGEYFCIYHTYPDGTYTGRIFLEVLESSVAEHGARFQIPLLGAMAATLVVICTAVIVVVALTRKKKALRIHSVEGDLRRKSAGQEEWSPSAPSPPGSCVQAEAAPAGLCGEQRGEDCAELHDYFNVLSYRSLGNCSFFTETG
Description: cell-based or functional assay.

For experiment [2], the target named is T1, human TIGIT expressed on cells. Nature of the experiment: cell-based or functional assay. This is another data set of the same source.
The next experiment has as its target T2, Human TIGIT-Fc (human, UniProt Q495A1 22-141).
T2 construct: bought (Creative Biomart); also called TIGIT-Fc antigen; TIGIT-Fc fusion antigen; not shown: Fc part
T2 sequence (looked up): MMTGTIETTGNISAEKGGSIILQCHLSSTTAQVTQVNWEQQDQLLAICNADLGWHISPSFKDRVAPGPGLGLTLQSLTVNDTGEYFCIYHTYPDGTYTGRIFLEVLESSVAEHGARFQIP
Nature of the experiment: ForteBio BLI, IgG KD, avid. The procedure: Briefly, ForteBio affinity measurements were performed by loading IgGs on-line onto AHQ sensors. Sensors were equilibrated off-line in assay buffer for 30 min and then monitored on-line for 60 seconds for baseline establishment. Sensors with loaded IgGs were exposed to 100 nM antigen (human TIGIT-Fc, human TIGIT-His or cyno TIGIT-Fc) for 5 minutes, afterwards they were transferred to assay buffer for 5 min for off-rate measurement. Kinetics were analyzed using the 1:1 binding model.

Experiment [3] addresses T1, human TIGIT expressed on cells. Description: flow cytometry on Jurkat-hTIGIT, FIG. 9. The procedure: (§1) Antibodies were incubated with the cells for 20 min at 4° C. in FACS buffer. […] Geometric mean fluorecence intensity was analysed using LSR BD Fortessa. Cell binding was recorded as the median florescence intensity of PE on the transfected line compared to the un-transfected line for each antibody (Table 3).
Background: Flow cytometry measures light scatter and fluorescence of single cells or particles in a stream.

For experiment [4], the target named is T3, cynomolgus TIGIT on primary CD8+ T cells (Macaca fascicularis (cynomolgus), UniProt A0A7N9I9V4 89-312).
T3 construct: whole, on cells
Description: flow cytometry, cynomolgus CD69+CD8+ T cells, FIG. 11. The procedure: Isolated PBMCs from Macaca fascicularis were obtained from BioPRIM. Cells were thawed and stimulated using the T cell activation/expansion kit for non-human primate (Miltenyi Biotec) at 1:2 (bead:cell ratio) following the manufacturer's specifications. The next day, cells were collected, counted and distributed at 5×10^4 cells per well. […] Then, cells were washed and incubated with the following antibodies and LVD mix for data illustrated in FIGS. 11A and 11B: anti-CD4-PercP-Cy5.5 (clone A161A1, BioLegend 357414); anti-CD8-BV510 (clone SK1, BD Bioscience 563919), CD69-APC-Cy7 (Clone FN50, BioLegend, 310914) and LVD efluor 520 (eBioscience 65-0867-14). Stained cells were analysed by FACS using BD LSR Fortessa. The EC50 value of binding was calculated using the % of positive TIGIT stained cells gated on LVD-CD69+CD8+ T cells.

Experiment [5] deals with T4, Human TIGIT-His (human, UniProt Q495A1 22-141, biotinylated in the ForteBio Fab assay).
T4 construct: bought (Creative Biomart); also called Biotinylated Human TIGIT HIS; TIGIT-His monomer; not shown: His tag
T4 sequence (looked up): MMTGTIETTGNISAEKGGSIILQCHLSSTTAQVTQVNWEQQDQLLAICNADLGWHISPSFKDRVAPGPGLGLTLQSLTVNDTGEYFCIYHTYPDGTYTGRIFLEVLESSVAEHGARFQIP
Description: Biacore 8K, IgG on CM5 chip, human TIGIT-HIS in solution. The procedure: (§2) Biosensor analysis was conducted at 25° C. in a HBS-EP buffer system (10 mM HEPES pH 7.3, 150 mM NaCl, 3 mM EDTA, 0.05% Surfactant P20) using a Biacore 8K optical biosensor docked with a CMS sensor chip (GE Healthcare, Marlboro, Mass.). The sample hotel was maintained at 8° C. […] This surface type provided a format for reproducibly capturing fresh analysis antibody after each regeneration step. Flow cell 2 was used to analyze captured antibody (60-90 RU) while flow cell 1 was used as a reference flow cell. […] Each of the antigen sample concentrations were run as a single replicate. Two blank (buffer) injections also were run and used to assess and subtract system artefacts. The association (300 s) and dissociation (600 s) phases for all antigen concentrations were performed at a flow rate of 30 uL/min. The surface was regenerated with three sequential injections (15 s, 15 s and 60 s) of 10 mM glycine, pH 1.5 at a flow rate of 30 uL/min. The data was aligned, double referenced, and fit to a 1:1 binding model using Biacore 8K Evaluation Software, version 1.0.
A general note: Surface plasmon resonance follows binding to a sensor surface in real time, without labels.

Experiment [6] deals with T4, Human TIGIT-His. Description: MSD-SET, monovalent (Fab or mAb titrated, not said which). The procedure:
(§3) Briefly, solution equilibrium titrations (SET) were performed in PBS+0.1% IgG-Free BSA (PBSF) with antigen (TIGIT-His monomer) held constant at 10-100 pM and incubated with 3- to 5-fold serial dilutions of Fab or mAbs starting at 10 pM-10 nM. Antibodies (20 nM in PBS) were coated onto standard bind MSD-ECL plates overnight at 4° C. or at room temperature for 30 min. Plates were then blocked by BSA for 30 min with shaking at 700 rpm, followed by three washes with wash buffer (PBSF+0.05% Tween 20). SET samples were applied and incubated on the plates for 150s with shaking at 700 rpm followed by one wash. Antigen captured on a plate was detected with 250 ng/mL sulfotag-labeled streptavidin in PBSF by incubation on the plate for 3 min. The plates were washed three times with wash buffer and then read on the MSD Sector Imager 2400 instrument using 1× Read Buffer T with surfactant. The percent free antigen was plotted as a function of titrated antibody in Prism and fit to a quadratic equation to extract the KD. To improve throughput, liquid handling robots were used throughout MSD-SET experiments, including SET sample preparation.

For experiment [7], the target named is T1, human TIGIT expressed on cells. Nature of the experiment: flow cytometry, 100 nM Ab, Jurkat-hTIGIT vs untransfected. The procedure:
as §1

The target of experiment [8] is T5, mouse TIGIT expressed on cells (mouse, UniProt P86176 29-249).
T5 construct: whole, on cells; on Jurkat cells engineered to express mouse TIGIT; also called mTIGIT; Jurkat-mTIGIT
T5 sequence (looked up): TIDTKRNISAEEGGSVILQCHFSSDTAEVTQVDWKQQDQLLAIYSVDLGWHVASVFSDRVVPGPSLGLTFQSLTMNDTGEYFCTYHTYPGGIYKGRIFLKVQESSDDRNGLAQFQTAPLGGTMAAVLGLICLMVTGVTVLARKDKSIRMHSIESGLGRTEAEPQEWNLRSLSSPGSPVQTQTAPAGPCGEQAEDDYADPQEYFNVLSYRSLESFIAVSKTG
Description: flow cytometry, 100 nM Ab, Jurkat-mTIGIT vs untransfected. The procedure: as §1

Experiment [9] concerns the target T4, Human TIGIT-His. Nature of the experiment: MSD-SET, monovalent (Fab or mAb titrated, not said which). The procedure: as §3
This is another data set of the same source.

Experiment [10] has as its target T1, human TIGIT expressed on cells. Nature of the experiment: flow cytometry, competition with CD155-His (5 ug/ml) on Jurkat-hTIGIT.
Experiment [11] shares this target. Nature of the experiment: flow cytometry, total human primary CD8+ T cells, % TIGIT stained cells, FIG. 10A.
For experiment [12], the target named is T4, Human TIGIT-His. Nature of the experiment: Biacore, IgG captured, TIGIT-His in solution. The procedure:
as §2

T3 sequence (A0A7N9I9V4 entry or part of it): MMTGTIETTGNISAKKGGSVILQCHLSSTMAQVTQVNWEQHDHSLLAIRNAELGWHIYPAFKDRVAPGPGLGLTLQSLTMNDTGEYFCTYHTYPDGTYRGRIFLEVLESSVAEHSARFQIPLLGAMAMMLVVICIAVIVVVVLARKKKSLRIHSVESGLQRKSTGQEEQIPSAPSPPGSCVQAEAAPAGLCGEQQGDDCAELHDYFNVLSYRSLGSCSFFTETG

B1: anti-TIGIT antibody clone 29527 (IgG) (antibody, V domains shown)
VH: QVQLVESGGGVVQPGRSLRLSCAASGFTFSSSYMHWVRQAPGKGLEWVAVIGADGSNKYYADSVEGRFTISRDNSKNTLYLQMNSLRAEDTALYYCAKPVPRRRGLDVWGQGTMVTVSS
VL: DIQLTQSPSSVSASVGDRVTITCRASQGISSWLAWYQQKPGKAPKLLIYGASSLQSGVPSRFSGSGSGTDFTLTISSLQPEDFATYYCQQAFYLPWTFGGGTKVEIK
The term Kd denotes the equilibrium constant for the complex coming apart. Lower therefore signals a tighter complex. In general, EC50 refers to the concentration giving half of the maximal effect. A higher EC50 goes with a need for much substance. As usually defined, the IC50 is the concentration that gives 50% inhibition. Read a low IC50 as greater potency. Consider B1, for which, in [1], the “EC50 for increase in IFNg secretion by human primary CD8 T cells, FIG. 13B” value was 5.1 nM. Moreover, in experiment [1], the “EC50 of Jurkat-hTIGIT cell activation (luciferase), FIG. 12B” value is 32 nM. Further, the “increase of IFNg secretion over isotype control, human primary CD8+ T cells + CHO-TCR-CD155” value (shortened to “increase of IFNg secretion”) in experiment [1] was determined as 4.5 fold. The “Induction over Isotype control (fold change), luciferase, Jurkat-hTIGIT + CHO-TCR-CD155, 133 nM” value in experiment [2] came out at 2.96 fold. The Kd in the experiment with Human TIGIT-Fc was 0.35 nM; in the experiment with Human TIGIT-His [5], 1.2 nM; in the experiment with Human TIGIT-His [6], 0.64 nM; with Human TIGIT-His [9], 0.64 nM. Also, the EC50 in experiment [3] worked out at 0.05 nM; in experiment [4], 0.378 nM; in [11] it was 0.253 nM. Further, the “FON (Fold Over Negative)” value amounted to 142 fold in experiment [7] and 414 fold in [8]. The IC50 in experiment [10] was found to be 0.078 nM.

B2: anti-TIGIT antibody clone 29494 (IgG) (antibody, V domains shown)
VH: QVQLQESGPGLVKPSETLSLTCTVSGGSISSGSYYLAWIRQPPGKGLEWIGSIFRSGSTYYNPSLESRVTISVDTSKNQFSLKLSSVTAADTAVYYCAIEGANFKDFGYVAFDIWGQGTMVTVSS
VL: EIVMTQSPATLSVSPGERATLSCRASQSVSSNLAWYQQKPGQAPRLLIYGASTRATGIPARFSGSGSGTEFTLTISSLQSEDFAVYYCQQSPPWPRTFGGGTKVEIK
For the molecule B2, the “EC50 for increase in IFNg secretion by human primary CD8 T cells, FIG. 13B” value in experiment [1] came to 6.1 nM. Moreover, the “EC50 of Jurkat-hTIGIT cell activation (luciferase), FIG. 12B” value in experiment [1] was determined as 4.4 nM. The “increase of IFNg secretion” value in [1] is 5.8 fold. Further, the “Induction over Isotype control (fold change), luciferase, Jurkat-hTIGIT + CHO-TCR-CD155, 133 nM” value in experiment [2] is 3.42 fold. Further, the Kd with Human TIGIT-Fc came to 0.376 nM; with Human TIGIT-His [12] it was 0.27 nM; in the experiment with Human TIGIT-His [5], 0.27 nM; with Human TIGIT-His [6], 0.07 nM; with Human TIGIT-His [9], 0.07 nM. Further, it took 0.07 nM to reach a half-maximal effect in experiment [3] (EC50). Moreover, the results for the “FON (Fold Over Negative)” value in experiment [7] and in experiment [8] were 164 fold and 511 fold, respectively. In addition, the IC50 in [10] turned out to be 0.07 nM.

B3: anti-TIGIT antibody clone 31288 (IgG) (antibody, V domains shown)
VH: QLQLQESGPGLVKPSETLSLTCTVSGGSISSGSYYLAWIRQPPGKGLEWIGSIFRSGSTYYNPSLESRVTISVDTSKNQFSLKLSSVTAADTAVYYCAIEGANFKDFGYVAFDIWGQGTTVTVSS
VL: EIVMTQSPATLSVSPGERATLSCRASQSVSSNLAWYQQKPGQAPRLLIYGASTRATGIPARFSGSGSGTEFTLTISSLQSEDFAVYYCQQSPPWPRTFGGGTKVEIK
notes: human IgG
For the molecule B3, the Kd with Human TIGIT-His [12] and with Human TIGIT-His [5] was 0.192 nM throughout.

B4: anti-TIGIT antibody clone 29499 (IgG) (antibody, V domains shown)
VH: QLQLQESGPGLVKPSETLSLTCTVSGGSISSSRYYWAWIRQPPGKGLEWIGSIGTSGSTYYNPSLKSRVTISVDTSKNQFSLKLSSVTATDTAVYYCAIEGANFRDFGYVAFDIWGQGTMVTVSS
VL: EIVMTQSPATLSVSPGERATLSCRASQSVSSNLAWYQQKPGQAPRLLIYGASTRATGIPARFSGSGSGTEFTLTISSLQSEDFAVYYCQQSPPWPRTFGGGTKVEIK
As to B4, in experiment [1], the “increase of IFNg secretion” value stood at 5.2 fold. Also, in [2], the “Induction over Isotype control (fold change), luciferase, Jurkat-hTIGIT + CHO-TCR-CD155, 133 nM” value came out at 3.68 fold. The Kd with Human TIGIT-Fc was found to be 0.319 nM; with Human TIGIT-His [6], 0.019 nM; with Human TIGIT-His [9], 0.019 nM. For the same molecule, the “FON (Fold Over Negative)” value in experiment [7] was 164 fold; in experiment [8] it was 541 fold. In experiment [10], this molecule showed an IC50 of 0.103 nM.

B5: anti-TIGIT antibody clone 29513 (IgG) (antibody, V domains shown)
VH: QVQLVQSGAEVKKPGSSVKVSCKASGGTFQNYAISWVRQAPGQGLEWMGVIVPIFGTANYAQKFQGRVTVTADESTSTAYMELSSLRSEDTAVYYCARLHLGQKAYYGMDVWGQGTTVTVSS
VL: DIQMTQSPSSLSASVGDRVTITCRASQSISSYLNWYQQKPGKAPKLLIYAASSLQSGVPSRFSGSGSGTDFTLTISSLQPEDFATYYCQQRYVFPPTFGGGTKVEIK
On to B5, for which the “increase of IFNg secretion” value in experiment [1] is 3.2 fold. Also, the “Induction over Isotype control (fold change), luciferase, Jurkat-hTIGIT + CHO-TCR-CD155, 133 nM” value in [2] was determined as 3.26 fold. Besides, the Kd with Human TIGIT-Fc worked out at 0.392 nM; with Human TIGIT-His [6], 0.025 nM; with Human TIGIT-His [9], 0.025 nM. The “FON (Fold Over Negative)” value came to 156 fold in [7] and 406 fold in experiment [8]. The same molecule had an IC50 in experiment [10] of 0.094 nM.
